Measurements: the supplement of paper PMC10567573

B1: POMT2 (parent)
chain: YHEAPMTRKHYQVTGYGINGTGDS

Variants of: B1
Experiment: protein stability index of a GFP-peptide fusion (GPS, HEK-293T) (PSI 1-6); higher = more stable
Conditions: c terminus: a fixed tail appended
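Further: lentivirally expressed fusions sorted by FACS into six bins by GFP to DsRed ratio, PSI derived from sequencing read proportions per bin multiplied by bin number.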

Protein stability index: each site, then its substitutions
T7: E 2.39, P 2.42, Y 1.47, Q 2.57, H 2.03, D 2.66, C 2.2, R 1.87, V 2.07, F 1.92, I 2.45, N 1.82, K 1.86, S 2.3, W 3.27, G 2.08, L 1.79, A 2.33, M 2.17
M6: A 2.48, P 2.55, R 2.7, H 1.69, D 2.36, N 2.15, I 2.83, T 2.43, V 2.67, L 2.41, S 2.59, Q 2.68, F 1.82, Y 1.98, G 2.38, E 2.56, C 2, K 2.55, W 1.42
G22: Y 2.15, P 3.15, R 1.92, N 2.18, A 2.26, M 2.04, K 2.29, S 2.36, C 1.91, Q 2.28, T 1.95, E 2.35, W 1.7, V 2.25, I 1.68, L 2.28, F 2.3, D 2.17, H 2.44
G17: E 2.73, R 2.37, I 1.84, A 1.9, N 2.03, S 1.62, C 2.41, D 2.51, L 2.5, M 1.84, H 2.06, K 2.13, V 2.08, Q 1.75, F 1.79, P 2.87, T 2.24, Y 2.26, W 2.6
Y16: M 2.3, G 2.9, C 2.51, L 1.97, V 2.47, P 2.92, H 2.79, T 2.53, S 2.67, R 3.36, A 2.48, I 2.47, Q 2.26, F 1.75, D 3.66, W 1.75, K 3.2, N 2.43, E 3.3
Y11: H 2.93, A 3.38, W 1.7, N 3.15, T 3.17, L 2.75, K 3.14, R 2.56, C 3.06, M 2.98, S 3.03, D 3.77, Q 3.57, E 3.98, I 2.77, V 3.22, G 3.23, F 2.01, P 3.14
Q12: M 2.34, Y 2.46, P 2.37, T 2.16, E 2.41, F 2.28, G 2.08, N 2.85, C 2.08, R 1.88, K 2.24, S 2.22, V 2.36, A 1.96, L 2.29, W 1.91, D 3.05, H 2.07, I 1.97
G20: D 2.18, L 2.21, M 1.98, C 1.86, Q 2.43, A 2.45, T 2.43, W 2.12, Y 2.39, P 2.24, R 2.16, V 1.98, E 2.4, F 2.35, H 2.26, S 2.36, K 2.08, I 2.03, N 2.47
G15: A 2.25, D 2.31, I 1.59, T 2.78, F 1.19, S 2.14, N 2.04, W 2.28, K 2.71, V 1.44, C 2.01, M 2.03, Q 1.88, Y 2.44, E 3.36, H 2.63, R 2.02, L 1.51, P 2.86
T14: P 2.54, K 1.97, M 2.05, G 3.05, F 2.57, E 2.96, I 2.12, L 1.99, H 2.53, N 2.39, V 1.84, Q 2.87, C 3.13, S 2.03, R 2.13, W 1.41, A 1.85, Y 1.54, D 3.36
I18: P 2.36, N 2.42, R 2.55, G 2.2, W 1.67, Y 2.07, A 2.73, K 2.78, M 2.3, T 2.42, F 2.47, H 2.47, C 2.37, E 2.95, L 2.64, Q 2.9, D 2.9, V 2.21, S 2.22
T21: I 1.37, Y 1.76, W 2.15, F 2.11, L 2.1, H 2.23, K 2.3, D 2.46, P 2.25, S 2.19, V 1.37, E 2.04, Q 2.12, A 2.56, G 1.83, N 2.58, C 2.4, R 2.6, M 2.01
R8: H 3.02, C 1.95, I 1.94, N 2.82, Y 2.09, T 2.44, P 2.31, M 2.68, S 2.6, Q 2.86, D 3.19, L 3.16, A 2.61, V 2.55, G 2.74, F 2.09, W 1.62, E 3, K 2.44
K9: E 3.29, T 2.7, Y 1.76, G 2.51, F 2.13, C 2.42, V 2.35, S 2.29, R 1.87, N 2.47, W 2.07, D 3.42, A 2.31, M 2.3, H 1.84, L 1.97, P 2.76, I 2.12, Q 2.9
V13: K 2.68, S 3.32, R 3.24, G 2.52, I 2.21, A 2.76, W 2.23, E 3.61, Y 2.97, L 2.69, H 2.84, N 2.65, T 2.6, F 2.08, Q 3.11, D 3.46, P 2.34, C 2.14, M 2.59
N19: E 1.9, G 2.4, F 2.3, R 1.73, H 2.25, D 1.88, P 2.4, V 2.03, M 2.62, S 2.3, I 1.9, W 2.24, A 1.8, L 2.06, Q 1.84, K 2.44, Y 2.57, C 2.02, T 2.21
H10: S 2.36, Y 1.33, I 2.79, W 2.49, E 3.02, Q 2.87, D 3.54, N 2.92, A 1.86, K 2.58, M 1.94, T 2.08, G 3.05, P 2.37, F 2.5, C 2.66, V 1.91, R 1.94, L 1.51
D23: F 1.63, A 2.02, E 2.11, C 2.22
P5: S 2.69, Q 2.84, R 2.29, T 2.02, V 2.14, Y 1.73, W 1.63
